Data as given in patent US20220048967A1 (published 2022).
Numbered stars: 1 amine (or outer) side, 2 acyl side, 3 side chain; on linkers, the order of the positions; unused ones are H or OH. Square brackets hold non-standard residues; d marks the D form. Side chains are listed from the residue outwards. Ends that are not written are not given here. * marks the point of attachment. C20 diacid = O=C(O)CCCCCCCCCCCCCCCCCCC(=O)*; C18 diacid = O=C(O)CCCCCCCCCCCCCCCCC(=O)*; γGlu = O=C(O)[C@H](CCC(=O)[*:2])N[*:1]; AEEA = NCCOCCOCC(=O)O; Aib = CC(C)(N)C(=O)O

T1: human gastric inhibitory peptide receptor (GIPR) (human, UniProt P48546 22-466)
T1 sequence (looked up): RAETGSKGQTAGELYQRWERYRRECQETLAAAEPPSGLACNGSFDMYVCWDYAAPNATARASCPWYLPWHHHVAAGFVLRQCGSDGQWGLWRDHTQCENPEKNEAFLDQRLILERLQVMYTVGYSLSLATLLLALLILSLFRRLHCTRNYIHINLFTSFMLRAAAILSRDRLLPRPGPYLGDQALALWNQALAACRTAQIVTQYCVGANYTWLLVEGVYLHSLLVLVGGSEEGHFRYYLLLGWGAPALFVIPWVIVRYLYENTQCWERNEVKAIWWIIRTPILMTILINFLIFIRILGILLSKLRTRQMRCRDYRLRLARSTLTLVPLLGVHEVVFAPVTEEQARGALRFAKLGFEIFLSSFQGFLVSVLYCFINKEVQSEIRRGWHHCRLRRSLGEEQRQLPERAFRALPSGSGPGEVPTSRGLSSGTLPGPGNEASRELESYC


Columns and labels:
[1] = molecular target: T1, human gastric inhibitory peptide …; assay: cell-based or functional assay
[2] = molecular target: human GLP-1 receptor (GLP-1R) (human, UniProt P43220 24-463); assay: cell-based or functional assay

Row | Binder | hGIPR cAMP EC50 ratio [1] | hGIPR cAMP Rel EC50 [1] [nM] | hGLP1R cAMP EC50 ratio [2] | hGLP1R cAMP Rel EC50 [2] [nM]
1 | F[Aib]EGTFTSDYSILLDKK([AEEA-AEEA-γGlu-C20 diacid])AQ[Aib]AFIEYLIEGGPSSGAPPPS-NH2 [Example 326] | 1.5 | 0.0754 | 1.4 | 0.0369
2 | YXEGTFTSDYSIXLDEKAQXAFIEYLIEGGPSSGAPPPS (Aib2, αMeL13, (2-[2-(2-Amino-ethoxy)-ethoxy]-acetyl)2-(γ-Glu)-CO-(CH2)16-CO2H on K17, Aib20, C-terminal NH2) [Example 323] | 3.24 | 0.0251 | 1.32 | 0.0597
3 | YXEGTFTSDYSIXLDEKAQXDFIEYLIAGGPSSGAPPPS (Aib2, αMeL13, (2-[2-(2-Amino-ethoxy)-ethoxy]-acetyl)2-(γ-Glu)-CO-(CH2)18-CO2H on K17, Aib20, C-terminal NH2) [Example 344] | 1.79 | 0.0433 | 1.86 | 0.044
4 | YXEGTXTSDYSILLDKKAQXAFIEYLIEGGPSSGAPPPS (Aib2, αMeF(2F)6, (2-[2-(2-Amino-ethoxy)-ethoxy]-acetyl)2-(γ-Glu)-CO-(CH2)18-CO2H on K17, Aib20, C-terminal NH2) [Example 325] | 2.65 | 0.0301 | 1.16 | 0.0586
5 | XXEGTFTSDYSIXLDKKAQXAFIEYLIEGGPSSGAPPPS (not fully specified; D-Tyr1, Aib2, αMeL13, (2-[2-(2-Amino-ethoxy)-ethoxy]-acetyl)2-(γ-Glu)-CO-(CH2)18-CO2H on K17, Aib20, C-terminal NH2) [Example 334] | 0.844 | 0.0718 | 0.151 | 0.303
6 | YXEGTFTSDYSIXLDKKAQXEFIEYLIEGGPSSGAPPPS (not fully specified; Aib2, αMeL13, (2-[2-(2-Amino-ethoxy)-ethoxy]-acetyl)2-(γ-Glu)-CO-(CH2)18-CO2H on K17, Aib20, C-terminal NH2) [Example 333] | 2.31 | 0.0492 | 0.487 | 0.131
7 | XXEGTFTSDYSIXLDKKAQXAFIEYLIAGGPSSGAPPPS (not fully specified; D-Tyr1, Aib2, αMeL13, (2-[2-(2-Amino-ethoxy)-ethoxy]-acetyl)2-(γ-Glu)-CO-(CH2)18-CO2H on K17, Aib20, C-terminal NH2) [Example 340] | 0.852 | 0.0823 | 0.183 | 0.252
8 | XXEGTFTSDYSIXLDEKAQXEFIEYLIAGGPSSGAPPPS (not fully specified; D-Tyr1, Aib2, αMeL13, (2-[2-(2-Amino-ethoxy)-ethoxy]-acetyl)2-(γ-Glu)-CO-(CH2)18-CO2H on K17, Aib20, C-terminal NH2) [Example 342] | 0.32 | 0.159 | 0.198 | 0.127
9 | FXEGTFTSDYSIXLDKKAQXAFIEYLIEAGPSSGAPPPS (Aib2, αMeL13, (2-[2-(2-Amino-ethoxy)-ethoxy]-acetyl)2-(γ-Glu)-CO-(CH2)16-CO2H on K17, Aib20, C-terminal NH2) [Example 328] | 0.94 | 0.0965 | 0.575 | 0.117
10 | YXEGTFTSDYSIXLDKKAQXEFIEYLIAGGPSSGAPPPS (not fully specified; Aib2, αMeL13, (2-[2-(2-Amino-ethoxy)-ethoxy]-acetyl)-(γ-Glu)-CO-(CH2)18-CO2H on K17, Aib20, C-terminal NH2) [Example 339] | 3.18 | 0.0219 | 0.574 | 0.0986
11 | XXEGTFTSDYSIXLDXKAQXAFIEYLIAGGPSSGAPPPS (D-Tyr1, Aib2, αMeL13, Orn16, (2-[2-(2-Amino-ethoxy)-ethoxy]-acetyl)2-(γ-Glu)-CO-(CH2)18-CO2H on K17, Aib20, C-terminal NH2) [Example 346] | 0.604 | 0.144 | 0.21 | 0.128
12 | YXEGTFTSDYSIXLDEKAQXAFIEYLIAGGPSSGAPPPS (Aib2, αMeL13, (2-[2-(2-Amino-ethoxy)-ethoxy]-acetyl)2-(γ-Glu)-CO-(CH2)18-CO2H on K17, Aib20, C-terminal NH2) [Example 332] | 0.949 | 0.0745 | 0.345 | 0.184
13 | YXEGTFTSDYSIXLDEKAQXEFIEYLIAGGPSSGAPPPS (Aib2, αMeL13, (2-[2-(2-Amino-ethoxy)-ethoxy]-acetyl)2-(γ-Glu)-CO-(CH2)18-CO2H on K17, Aib20, C-terminal NH2) [Example 331] | 1.4 | 0.0547 | 0.808 | 0.0929
14 | FXEGTFTSDYSIXLDKKAQXEFIEYLIAGGPSSGAPPPS (not fully specified; Aib2, αMeL13, (2-[2-(2-Amino-ethoxy)-ethoxy]-acetyl)2-(γ-Glu)-CO-(CH2)18-CO2H on K17, Aib20, C-terminal NH2) [Example 338] | 1.29 | 0.0472 | 0.262 | 0.174
15 | XXEGTFTSDYSIXLDEKAQXAFIEYLIAGGPSSGAPPPS (not fully specified; D-Tyr1, Aib2, αMeL13, (2-[2-(2-Amino-ethoxy)-ethoxy]-acetyl)2-(γ-Glu)-CO-(CH2)18-CO2H on K17, Aib20, C-terminal NH2) [Example 341] | 0.213 | 0.238 | 0.0674 | 0.373
16 | YXEGTFTSDYSIXLDEKAQXAFIXYLIAGGPSSGAPPPS (not fully specified; Aib2, αMeL13, (2-[2-(2-Amino-ethoxy)-ethoxy]-acetyl)2-(γ-Glu)-CO-(CH2)18-CO2H on K17, Aib20, D-Glu24, C-terminal NH2) [Example 343] | 1.84 | 0.0422 | 0.662 | 0.124
17 | FXEGTFTSDYSIXLDKKAQXAFIEYLIEGGPSSGAPPPS (Aib2, αMeL13, (2-[2-(2-Amino-ethoxy)-ethoxy]-acetyl)2-(γ-Glu)-CO-(CH2)18-CO2H on K17, Aib20, C-terminal NH2) [Example 327] | 1.47 | 0.0548 | 0.191 | 0.27
18 | XXEGTXTSDYSILLDKKAQXAFIEYLIEGGPSSGAPPPS (D-Tyr1, Aib2, αMeF6, (2-[2-(2-Amino-ethoxy)-ethoxy]-acetyl)2-(γ-Glu)-CO-(CH2)18-CO2H on K17, Aib20, C-terminal NH2) [Example 329] | 0.687 | 0.132 | 0.535 | 0.125
19 | FXEGTFTSDYSIXLDKKAQXAFIEYLIAGGPSSGAPPPS (not fully specified; Aib2, αMeL13, (2-[2-(2-Amino-ethoxy)-ethoxy]-acetyl)2-(γ-Glu)-CO-(CH2)18-CO2H on K17, Aib20, C-terminal NH2) [Example 337] | 1.18 | 0.0515 | 0.265 | 0.173
20 | YXEGTFTSDYSIXLDKKAQXAFIEYLIAGGPSSGAPPPS (Aib2, αMeL13, (2-[2-(2-Amino-ethoxy)-ethoxy]-acetyl)2-(γ-Glu)-CO-(CH2)1s-CO2H (so in the source); probably (CH2)18) on K17, Aib20, C-terminal NH2) [Example 324] | 2.13 | 0.0374 | 0.798 | 0.0926
21 | Y[Aib]EGTFTSDYSILLDKK([AEEA-AEEA-γGlu-C18 diacid])AQ[Aib]HFIEYLIEGGPSSG-NH2 (N-terminus assumed; SMILES CC[C@H](C)[C@H](NC(=O)[C@H](CC(C)C)NC(=O)[C@H](Cc1ccc(O)cc1)NC(=O)[C@H](CCC(=O)O)NC(=O)[C@@H](NC(=O)[C@H](Cc1ccccc1)NC(=O)[C@H](Cc1c[nH]cn1)NC(=O)C(C)(C)NC(=O)[C@H](CCC(N)=O)NC(=O)[C@H](C)NC(=O)[C@H](CCCCNC(=O)COCCOCCNC(=O)COCCOCCNC(=O)CC[C@H](NC(=O)CCCCCCCCCCCCCCCCC(=O)O)C(=O)O)NC(=O)[C@H](CCCCN)NC(=O)[C@H](CC(=O)O)NC(=O)[C@H](CC(C)C)NC(=O)[C@H](CC(C)C)NC(=O)[C@@H](NC(=O)[C@H](CO)NC(=O)[C@H](Cc1ccc(O)cc1)NC(=O)[C@H](CC(=O)O)NC(=O)[C@H](CO)NC(=O)[C@@H](NC(=O)[C@H](Cc1ccccc1)NC(=O)[C@@H](NC(=O)CNC(=O)[C@H](CCC(=O)O)NC(=O)C(C)(C)NC(=O)[C@@H](N)Cc1ccc(O)cc1)[C@@H](C)O)[C@@H](C)O)[C@@H](C)CC)[C@@H](C)CC)C(=O)N[C@@H](CCC(=O)O)C(=O)NCC(=O)NCC(=O)N1CCC[C@H]1C(=O)N[C@@H](CO)C(=O)N[C@@H](CO)C(=O)NCC(N)=O) [Example 322] | 0.266 | 0.146 | 0.125 | 0.711
22 | Y[Aib]EGTFTSDYSILLDEK([AEEA-AEEA-γGlu-C20 diacid])AQ[Aib]AFIEYLIAGGPSSGAPPPS-NH2 (N-terminus assumed; SMILES CC[C@H](C)[C@H](NC(=O)[C@H](CC(C)C)NC(=O)[C@H](Cc1ccc(O)cc1)NC(=O)[C@H](CCC(=O)O)NC(=O)[C@@H](NC(=O)[C@H](Cc1ccccc1)NC(=O)[C@H](C)NC(=O)C(C)(C)NC(=O)[C@H](CCC(N)=O)NC(=O)[C@H](C)NC(=O)[C@H](CCCCNC(=O)COCCOCCNC(=O)COCCOCCNC(=O)CC[C@H](NC(=O)CCCCCCCCCCCCCCCCCCC(=O)O)C(=O)O)NC(=O)[C@H](CCC(=O)O)NC(=O)[C@H](CC(=O)O)NC(=O)[C@H](CC(C)C)NC(=O)[C@H](CC(C)C)NC(=O)[C@@H](NC(=O)[C@H](CO)NC(=O)[C@H](Cc1ccc(O)cc1)NC(=O)[C@H](CC(=O)O)NC(=O)[C@H](CO)NC(=O)[C@@H](NC(=O)[C@H](Cc1ccccc1)NC(=O)[C@@H](NC(=O)CNC(=O)[C@H](CCC(=O)O)NC(=O)C(C)(C)NC(=O)[C@@H](N)Cc1ccc(O)cc1)[C@@H](C)O)[C@@H](C)O)[C@@H](C)CC)[C@@H](C)CC)C(=O)N[C@@H](C)C(=O)NCC(=O)NCC(=O)N1CCC[C@H]1C(=O)N[C@@H](CO)C(=O)N[C@@H](CO)C(=O)NCC(=O)N[C@@H](C)C(=O)N1CCC[C@H]1C(=O)N1CCC[C@H]1C(=O)N1CCC[C@H]1C(=O)N[C@@H](CO)C(N)=O) [Example 330] | 0.562 | 0.0919 | 0.255 | 0.199
